Here are results for three molecules from patent publication US20250179196A1 (Janssen / Centocor, published 2025).

In test [1] the target is T1, human IL-23R expressed on the cell surface of stably transfected iLite and HEK cell lines (human, UniProt Q5VWK5 24-629).
T1 construct: whole, on cells; Same receptor on two transfected cell lines; the cell line is named under assay; also called human IL-23R iLite cells; human IL-23R HEK cells
T1 sequence (looked up): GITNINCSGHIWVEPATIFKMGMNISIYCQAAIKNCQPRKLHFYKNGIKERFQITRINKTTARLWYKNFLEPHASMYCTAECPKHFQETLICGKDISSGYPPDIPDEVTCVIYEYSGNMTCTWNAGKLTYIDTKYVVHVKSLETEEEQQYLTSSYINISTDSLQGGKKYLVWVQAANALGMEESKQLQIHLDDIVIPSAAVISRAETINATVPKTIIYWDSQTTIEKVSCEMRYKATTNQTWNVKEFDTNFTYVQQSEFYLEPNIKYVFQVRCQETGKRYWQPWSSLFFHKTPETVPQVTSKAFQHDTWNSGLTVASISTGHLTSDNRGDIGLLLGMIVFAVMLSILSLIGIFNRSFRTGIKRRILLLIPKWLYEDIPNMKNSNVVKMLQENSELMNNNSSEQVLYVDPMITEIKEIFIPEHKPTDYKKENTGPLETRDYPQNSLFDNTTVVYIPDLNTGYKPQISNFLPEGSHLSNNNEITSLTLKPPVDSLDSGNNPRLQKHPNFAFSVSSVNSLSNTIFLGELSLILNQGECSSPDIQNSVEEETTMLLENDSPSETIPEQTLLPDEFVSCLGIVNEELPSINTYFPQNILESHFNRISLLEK
Kind of test: flow cytometry on human IL-23R HEK cells, Expt E (11-point, 384well). The method, boiled down:
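Antibody bound to HEK-IL-23R cells 30 min at 37 °C over 11 concentrations; after washes, Sytox Green added and cells run on iQue. Geometric MFI of 647 detection antibody on single viable cells fitted by variable-slope dose–response.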

Test [2] deals with T1, human IL-23R expressed on the cell …. Kind of test: flow cytometry on human IL-23R iLite cells, Expt A (1-point). As to the method:
Human IL-23R iLiTe cell single concentration mAb Binding. Anti-IL-23R mouse IgG₂ₐ mAbs derived from phage panning were tested for binding to human IL-23R expressing iLiTe cells, where a PE conjugated anti mouse secondary antibody detected mAbs bound to the receptor on the cells. […] The next day 100,000 cells were added to each well of a 96 well V bottom plate (Costar, Catalog #3357), centrifuged at 450× gravity for 2 minutes, and then supernatants were decanted. […] Antibodies diluted to 3 μg/mL in Stain Buffer (BSA) (BD Pharmagen, Catalog #554657) were added at 100 μL/well and incubated on ice for 50 minutes, then plates were centrifuged and supernatants were decanted. […] Cells were washed by adding 100 μL/well of Stain Buffer followed by centrifugation and decanting of the supernatants. Cells were resuspended in 100 μL/well of Stain Buffer and analyzed on the Becton Dickenson LSR II FACS instrument with HTS module. Data was analyzed using FlowJo software (Treestar) to obtain geometric mean fluorescence intensities.

The target is the same in test [3]. Kind of test: flow cytometry on human IL-23R iLite cells, Expt C (12-point), Gate 1 + 2. Here is the method:
(§1) Human IL-23R iLiTe cell concentration response mAb binding. […] The next day 100,000 cells were added to each well of a 96 well V bottom plate (Costar, Catalog #3357), centrifuged at 450× gravity for 2 minutes, and then supernatants were decanted. Antibodies were diluted in Stain Buffer (BSA) (BD Pharmagen, Catalog #554657) and added at 50 μL/well, and mixed. Plates were incubated on ice for 50 minutes, then plates were centrifuged and supernatants were decanted. […] Cells were washed by adding 200 μL/well of Stain Buffer followed by centrifugation and decanting of the supernatants. Cells were resuspended in 100 μL/well of Stain Buffer, transferred in quadruplicate to a 384 well plate (Greiner, Catalog #781281) and analyzed on the Becton Dickenson LSR II FACS instrument with HTS module. Data was analyzed using FlowJo software (Treestar) to obtain geometric mean fluorescence intensities, and geometric mean fluorescence intensities were plotted over log mAb concentrations fitted with a sigmoidal dose response curve with variable slope using GraphPad Prism.

The target is the same in test [4]. Put plainly: flow cytometry on human IL-23R iLite cells, Expt C (12-point), Gate 2. Here is the method: as §1
Test [5] has the same target. Kind of test: flow cytometry on human IL-23R iLite cells, Expt B (1-point). Here is the method: Human IL-23R iLiTe cell single concentration mAb Binding. Anti-IL-23R mouse IgG₂ₐ mAbs derived from phage panning were tested for binding to human IL-23R expressing iLiTe cells, where a PE conjugated anti mouse secondary antibody detected mAbs bound to the receptor on the cells. […] The next day 100,000 cells were added to each well of a 96 well V bottom plate (Costar, Catalog #3357), centrifuged at 450× gravity for 2 minutes, and then supernatants were decanted. […] Cells were washed by adding 100 μL/well of Stain Buffer followed by centrifugation and decanting of the supernatants. Cells were resuspended in 100 μL/well of Stain Buffer and analyzed on the Becton Dickenson LSR II FACS instrument with HTS module. Data was analyzed using FlowJo software (Treestar) to obtain geometric mean fluorescence intensities.

B1: I23RB1 (antibody, mouse IgG2a, kappa, V domains shown)
VH: QVQLVQSGAEVKKPGSSVKVSCKASGGTFKNYAISWVRQAPGQGLEWMGWIRPIFGTAYYAQKFQGRVTITADESTSTAYMELSSLRSEDTAVYYCARDSGSRYAGRYAFDYWGQGTLVTVSS
VL: EIVLTQSPATLSLSPGERATLSCRASQSVSSYLAWYQQKPGQAPRLLIYDASNRATGIPARFSGSGSGTDFTLTISSLEPEDFAVYYCQQRSNWPLTFGQGTKVEIKR
notes: phage display; human V, mouse IgG2a/kappa
For the molecule B1, the “MFI (6.4 nM)” value in test [1] turned out to be 287000 MFI. For the same molecule, the “MFI @ 20 nM” value in test [2] came to 5090 MFI. The EC50 in test [3] was 260 pM; in test [4], 20 pM. Also, the “MFI @ 0.7 nM” value in test [5] came out at 2990 MFI.

B2: I23RB3 (antibody, mouse IgG2a, kappa, V domains shown)
VH: QVQLVQSGAEVKKPGSSVKVSCKASGGTFKSYSIHWVRQAPGQGLEWMGGIIPYFGYANYAQKFQGRVTITADESTSTAYMELSSLRSEDTAVYYCARERGYYGSIYYGGGFDYWGQGTLVTVSS
VL: EIVLTQSPATLSLSPGERATLSCRASQSVSSYLAWYQQKPGQAPRLLIYDASNRATGIPARFSGSGSGTDFTLTISSLEPEDFAVYYCQQRSNWPLTFGQGTKVEIKR
notes: as for B1
With B2, the “MFI (6.4 nM)” value in test [1] stood at 149000 MFI. Besides, the “MFI @ 20 nM” value in test [2] was found to be 4320 MFI. Further, the values for the EC50 in test [3] and in test [4] were 660 pM and 370 pM, respectively. Moreover, the “MFI @ 0.7 nM” value in test [5] was found to be 1460 MFI.

B3: I23RB2 (antibody, mouse IgG2a, kappa, V domains shown)
VH: QVQLVQSGAEVKKPGSSVKVSCKASGGTFSSYAISWVRQAPGQGLEWMGGIIPIFGTANYAQKFQGRVTITADESTSTAYMELSSLRSEDTAVYYCARDRYRYLGANGFDYWGQGTLVTVSS
VL: EIVLTQSPATLSLSPGERATLSCRASQSVSSYLAWYQQKPGQAPRLLIYDASNRATGIPARFSGSGSGTDFTLTISSLEPEDFAVYYCQQRSNWPLTFGQGTKVEIKR
notes: as for B1
For B3, the “MFI @ 20 nM” value in test [2] turned out to be 4110 MFI. For the same molecule, the EC50 in test [3] amounted to 1090 pM; in test [4], 1110 pM. Besides, in test [5], the “MFI @ 0.7 nM” value amounted to 670 MFI.
